± gives the standard deviation of the averaged measurements.
Columns and labels:
Saccharomyces cerevisiae [1] = experiment: protein stability index of tFT-peptide fusion (C-terminal peptide) (PSI (0-1 scale)); higher = more stable (slower turnover); conditions: genetic background: wild type; temperature: 30 C
Saccharomyces cerevisiae [2] = experiment: as above
Description: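 MPS profiling in S. cerevisiae of the tFT-X12 degron library: putative degron peptides plus stable controls, 12 aa, fused to the C-terminus of a sfGFP-mCherry timer. Cells are FACS-sorted into 8 mCherry/sfGFP bins and deep-sequenced. PSI runs from 0 (unstable) to 1 (stable). Backgrounds are wild type, das1Δ and doa10Δ at 30 °C, and wild type, das1Δ, cdc34-1 and cdc53-1 at 37 °C; 2-3 technical replicates each.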

[3] = genetic background: cdc34-1, temperature: 37 C
[4] = genetic background: cdc53-1, temperature: 37 C
[5] = genetic background: das1 deletion, temperature: 30 C
[6] = genetic background: das1 deletion, temperature: 37 C
[7] = genetic background: doa10 deletion, temperature: 30 C
[8] = genetic background: wild type, temperature: 30 C
[9] = genetic background: wild type, temperature: 37 C
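Further: PSI is a weighted mean of sequencing reads over stability bins, variants kept only with over 10 reads, mCherry proximal and sfGFP distal, peptide attached via GGGS linker.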

| Sequence | protein stability index (Saccharomyces cerevisiae [1]) | protein stability index (Saccharomyces cerevisiae [2]; [3]) | protein stability index (Saccharomyces cerevisiae [2]; [4]) | protein stability index (Saccharomyces cerevisiae [2]; [5]) | protein stability index (Saccharomyces cerevisiae [2]; [6]) | protein stability index (Saccharomyces cerevisiae [2]; [7]) | protein stability index (Saccharomyces cerevisiae [2]; [8]) | protein stability index (Saccharomyces cerevisiae [2]; [9]) |
| --- | --- | --- | --- | --- | --- | --- | --- | --- |
| ACALRSLPPRPY | 0.188 ± 0.064 | 0.69 ± 0.035 | 0.7529 ± 0.0042 | 0.65 ± 0.024 | 0.746 ± 0.024 | 0.68 ± 0.019 | 0.649 ± 0.021 | 0.712 ± 0.017 |
| ACCGVFFFFFWL | 0.404 ± 0.018 | 0.403 ± 0.029 | 0.479 ± 0.018 | 0.366 ± 0.031 | 0.414 ± 0.016 | 0.363 ± 0.0061 | 0.35 ± 0.02 | 0.433 ± 0.031 |
| ACLVAVWRWVFV | 0.126 ± 0.024 | 0.276 ± 0.017 | 0.44 ± 0.037 | 0.309 ± 0.024 | 0.475 ± 0.0051 | 0.0646 ± 0.012 | 0.0758 ± 0.0066 | 0.0704 ± 0.0067 |
| AFAFLLHRFLLV | 0.148 ± 0.017 | 0.493 ± 0.058 | 0.55 ± 0.0057 | 0.477 ± 0.018 | 0.584 ± 0.0064 | 0.103 ± 0.0047 | 0.11 ± 0.012 | 0.142 ± 0.011 |
| AFRRFLLYCRFI | 0.198 ± 0.012 | 0.395 ± 0.013 | 0.378 ± 0.0056 | 0.503 ± 0.035 | 0.607 ± 0.015 | 0.199 ± 0.019 | 0.148 ± 0.025 | 0.201 ± 0.029 |
| AFYQSGGLVVVV | – | 0.618 ± 0.043 | 0.617 ± 0.016 | 0.459 ± 0.034 | 0.6279 ± 0.0048 | 0.45 ± 0.016 | 0.477 ± 0.024 | 0.591 ± 0.046 |
| AIPRWLALLVAH | 0.241 ± 0.0097 | 0.32 ± 0.012 | 0.381 ± 0.0079 | 0.29 ± 0.032 | 0.4508 ± 0.0036 | 0.13 ± 0.018 | 0.159 ± 0.022 | 0.238 ± 0.0066 |
| ALWRAWLRLRIW | 0.205 ± 0.0025 | 0.517 ± 0.054 | 0.591 ± 0.03 | 0.582 ± 0.019 | 0.733 ± 0.016 | 0.143 ± 0.0041 | 0.124 ± 0.0037 | 0.0985 ± 0.012 |
| APPFPPPPARSL | – | 0.644 ± 0.034 | 0.713 ± 0.0095 | 0.675 ± 0.019 | 0.718 ± 0.033 | 0.694 ± 0.022 | 0.68 ± 0.017 | 0.677 ± 0.015 |
| AQLVYVITAVRT | 0.42 ± 0.029 | 0.452 ± 0.017 | 0.458 ± 0.024 | 0.333 ± 0.031 | 0.569 ± 0.026 | 0.291 ± 0.025 | 0.315 ± 0.019 | 0.507 ± 0.029 |
| ARLTNYFVEWLS | 0.4612 ± 0.00085 | 0.667 ± 0.012 | 0.757 ± 0.012 | 0.657 ± 0.0066 | 0.746 ± 0.012 | 0.358 ± 0.023 | 0.383 ± 0.029 | 0.592 ± 0.012 |
| ASAYCCMITRLN | 0.172 ± 0.042 | 0.485 ± 0.09 | 0.574 ± 0.086 | 0.629 ± 0.012 | 0.611 ± 0.047 | 0.0987 ± 0.011 | 0.0882 ± 0.026 | 0.1737 ± 0.00037 |
| ASGVFSRLVLVS | 0.3097 ± 0.0016 | 0.323 ± 0.0038 | 0.335 ± 0.016 | 0.284 ± 0.03 | 0.4576 ± 0.0023 | 0.173 ± 0.012 | 0.201 ± 0.024 | 0.282 ± 0.0035 |

— the supplement of paper PMC10724198
